From patent publication US20060153850A1

Columns and labels:
[1] = target: human M-CSF (macrophage colony stimulating factor) (human) (UniProt P09603); assay: c-fms receptor binding inhibition assay: antibody varied, 125I-M-CSF binding to c-fms-bearing cells
[2] = target: human M-CSF (macrophage colony stimulating factor) (human) (UniProt P09603); assay: cell-based or functional assay

IC50 [1]: 0.006 nM | Human Whole Blood Monocyte Activation Assay [IC50, M] [2]: 1.98e-10 M | M-CSF Mouse Monocytic Cell Proliferation Assay [IC50, M] [2]: 7.37e-10 M
B1: monoclonal antibody 9.7.2 (antibody, human IgG4, kappa, V domains shown)
VH: QVQLVESGGGLVKPGGSLRLSCAASGFTFSDYYMSWIRQAPGKGLEWVSYISSSGSTIYYADSVKGRFTISRDNAKNSLYLQMNSLRAEDTAVYYCARRIGGMDVWGQGTTVTVSS
VL: DIQMTQSPSSLSASVGDRVTITCRASQSISGFLIWYQQRPGKAPKLLIYATSSLQSGVPLRFSGSESGTDFTLTISSLQPEDFATYYCQQSYSTPFTFGPGTKVDIKR
